According to patent US20260250410A1, “ANTIBODY AND USE THEREOF” (SICHUAN HUIYU PHARMACEUTICAL CO., LTD., priority 2022, published 2026):
Substitutions are numbered along the chain they refer to.

T1: HuCDCP1-C (Homo sapiens, UniProt Q9H5V8)
T1 construct: made in house; host or cells: HEK-293T
T1 sequence (Q9H5V8 30-667): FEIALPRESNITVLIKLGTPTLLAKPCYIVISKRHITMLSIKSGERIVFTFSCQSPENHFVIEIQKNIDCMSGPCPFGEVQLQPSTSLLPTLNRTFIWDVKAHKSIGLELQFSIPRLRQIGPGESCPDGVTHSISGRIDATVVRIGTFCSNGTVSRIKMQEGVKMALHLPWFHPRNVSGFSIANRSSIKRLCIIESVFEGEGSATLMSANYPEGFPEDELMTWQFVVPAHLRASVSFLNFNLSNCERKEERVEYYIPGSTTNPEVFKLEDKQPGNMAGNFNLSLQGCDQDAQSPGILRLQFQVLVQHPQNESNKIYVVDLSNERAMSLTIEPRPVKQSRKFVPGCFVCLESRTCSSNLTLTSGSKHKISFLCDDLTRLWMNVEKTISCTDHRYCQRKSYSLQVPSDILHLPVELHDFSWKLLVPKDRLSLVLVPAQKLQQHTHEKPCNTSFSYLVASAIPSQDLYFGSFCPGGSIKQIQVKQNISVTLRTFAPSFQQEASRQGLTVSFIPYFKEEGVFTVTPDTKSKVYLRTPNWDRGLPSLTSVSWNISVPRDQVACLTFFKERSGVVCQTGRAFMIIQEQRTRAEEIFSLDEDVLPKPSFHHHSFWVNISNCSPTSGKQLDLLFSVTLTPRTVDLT

B1: 1CP-116: humanized anti-CDCP1 antibody produced by 8E5; VH SEQ ID NO: 347, VL SEQ ID NO: 358 (antibody, V domains shown)
VH: QVQLVQSGSELKKPGASVKVSCKASGYTLTDFSMHWVRQAPGQGLEWMGWINTETGAPTYADDFKGRFVFSLDTSVSTAYLQISSLKAEDTAVYYCSRGRDYDPHFDYWGQGTLVTVSS
VL: EIVLTQSPATLSLSPGERATLSCRASQSISDFLHWYQQKPGQSPRLLIKYASQSISGIPARFSGSGSGSDFTLTISSVEPEDFAVYYCQSAHSFPYTFGQGTKLEIK
modifications: humanized antibody 8E5 heavy chain variable region 01; humanized antibody 8E5 light chain variable region 02
B2: 1CP-063: anti-CDCP1 murine monoclonal antibody (hybridoma); VH SEQ ID NO: 263, VL SEQ ID NO: 313 (antibody, V domains shown)
VH: EVNLKESGPELVKPGASVRISCKASGYTFTSYYIHWVKQRPGQGLEWIGWIYPGNVNSKYNEKFKGKVTLTADKSSITAYMQLSSLTSEDSAVYFCAREDYGHYYAMDYWGQGTTVTVSS
VL: DIVMTQSPSSMYASLGERVTITCKASQDIKSYLSWYQQKPWKSPKTLIYYATSLADGVPSRFSGSGSGQDYSLTISSLESDDTATYYCLQYGESPWTFGGGTKLEIK
modifications: 1CP-063 heavy chain variable region; 1CP-063 light chain variable region
B3: 1CP-061: anti-CDCP1 murine monoclonal antibody (hybridoma); VH SEQ ID NO: 262, VL SEQ ID NO: 312 (antibody, V domains shown)
VH: EVQLKESGAELVRPGASVKLSCKASGYTFTSYWINWVRQRPGQGLEWIGNIYPSDSYTNYNQKFKDKATLTVDKSSSTAYMQLSSPTSEDSAVYYCTRCLRRRDWYFDVWGQGTTVTVSS
VL: DVVMTQTPASLAVSLGQRATISCRASESVDYSGYSFMHWYQQKPGQPPKLLIYRASNLESGIPARFSGSGSRTDFTLTINPVEADDVATYYCQQSNEDPYTFGGGTKLEIK
modifications: 1CP-061 heavy chain variable region; 1CP-061 light chain variable region
B4: 1CP-062: anti-CDCP1 murine monoclonal antibody (hybridoma); VH SEQ ID NO: 264, VL SEQ ID NO: 314 (antibody, V domains shown)
VH: EVKLVESGPGLVAPSQSLSITCTVSGFSLTTYGVHWVRQPPGKGLEWLVVIWSDGNTTYNSALKSRLSINKDNSKSQVFLKMNSLQTDDTAMYYCAKNYRNYDYAMDYWGQGTTVTVSS
VL: B3 VL with V2I, Y31S, S32Y, Y34N
modifications: 1CP-062 heavy chain variable region; 1CP-062 light chain variable region
B5: 5G9: anti-CDCP1 murine monoclonal antibody (hybridoma); VH SEQ ID NO: 241, VL SEQ ID NO: 292 (antibody, V domains shown)
VH: EVQLQQSGTVLARPGASVKMSCKASGYIFLNYWMHWVKQRPGQGLEWIGGIYPGNTDTTYNQKFKGKAKVTAVTSATTAYMELSSLTNEDSAVYYCIRYDYDRGMDYWGQGTTVTVSS
VL: DIVMTQAPAIMSASPGEKVTISCSASSSVSYIYWYQQKPGSSPKPWIYRTSNLASGVPARFSGSGSGTSYSLTISSMEAEDAATYYCQQYHSYPYTFGGGTKLEIK
modifications: 5G9 heavy chain variable region; 5G9 light chain variable region
B6: 6G9: anti-CDCP1 murine monoclonal antibody (hybridoma); VH SEQ ID NO: 244, VL SEQ ID NO: 295 (antibody, V domains shown)
VH: EVQLKESGPGLVKPSQSLSLTCTVTGYSITSDYAWNWIRQFPGNKLEWMGYIIYSGRTSYNPSLKSRISITRDTSKNQFFLQLNSVTTEDTATYYCAREDYYGGSYGGLDYWGQGTTVTVSS
VL: DIVMTQSPLSLPVSLGDQASISCRSSQSIVHSNGNTYLEWYLQKPGQSPKLLIYKVSNRFSGVPDRFSGSGSGTDFTLKISRVEAEDLGVYYCFQGSHVPWTFGGGTKLEIK
modifications: 6G9 heavy chain variable region; 6G9 light chain variable region
B7: 3F1A11-H-12: anti-CDCP1 murine monoclonal antibody (hybridoma); VH SEQ ID NO: 248, VL SEQ ID NO: 296 (antibody, V domains shown)
VH: EVKLVESGPGLVKPSQSLSLTCSVTGYSITSGYYWNWIRQFPGNKLDWMGYITYDDSHYYNPSLKDRLSITRDTSKNQFFLKLNSVTAEDTATYFCARGNYYANYPHAMDYWGQGTTVTVSS
VL: B6 VL with D1E, M4L, S26R, S28T, I29L, S32T, E39D, N58I, G71R, V90I
modifications: 3F1A11-H-12 heavy chain variable region; 3F1A11/3F1A11-H-12 light chain variable region
B8: 3F1A11: anti-CDCP1 murine monoclonal antibody (hybridoma); VH SEQ ID NO: 245, VL SEQ ID NO: 296 (antibody, V domains shown)
VH: EVKLVESGPGLVKPSQSLSLTCTVTGYSITSDYAWNWIRQFPGNKLEWMGYISYNTYTSYNPSLKSRISVTRDTSKNQFFLQLKSVTIEDTATYFCAGGDYYGTGAVDYWGQGTTVTVSS
VL: B6 VL with D1E, M4L, S26R, S28T, I29L, S32T, E39D, N58I, G71R, V90I
modifications: 3F1A11 heavy chain variable region; 3F1A11/3F1A11-H-12 light chain variable region
B9: 24G4: anti-CDCP1 murine monoclonal antibody (hybridoma); VH SEQ ID NO: 261, VL SEQ ID NO: 311 (antibody, V domains shown)
VH: EVQLKESGAELVRSGASVKLSCTASGFNIKDYYIHWVKQRPEQGLEWIGWIDPENGDTEYVPKFQGKATLTADTSSNTAYLQLNSLTSEDTAVYYCNPCGTGPWFAYWGQGTTVTVSS
VL: DIQMTQSPAILSASPGEKVTMTCRASSSVSYIHWYQQKPGSSPDPWIYATSFLASGVPGRFSGSGSGTSYSLTISRLEAEDAATYYCQQWNSSPFTFGGGTKLEIK
modifications: 24G4 heavy chain variable region; 24G4 light chain variable region

Key:
HuCDCP1-C = biological target: T1, HuCDCP1-C; experiment: Caterra affinity of humanized anti-CDCP1 antibodies; format: binding; settings: HuCDCP1-C 2 μg/ml immobilized
Description: The humanized anti-CDCP1 antibodies obtained from Example 11 were subjected to gene cloning, constructed into pTT5 expression vector for a small amount of expression in CHO cells (Expi-CHOS: Gibco A29127), and purified with an Fc affinity column (AT Protein A Diamond Plus. No. AA402312). Antibody purity was analyzed by HPLC and determined by Nanodrop. High-throughput affinity assay was carried out for a small amount of antibodies by Caterra.

MDA-MB-231 cells = experiment: Endocytosis capacity of murine monoclonal antibody (flow cytometry internalization); format: cell-based, human; settings: antibody 1.5 μg/mL; for Internalization MDA-MB-231 (%) 2 h: MDA-MB-231, 2 h at 37° C.; for Internalization MDA-MB-231 (%) 0.5 h: MDA-MB-231, 0.5 h at 37° C.; for Internalization MDA-MB-231 (%) 1 h: MDA-MB-231, 1 h at 37° C.
Description: (§1) The endocytosis capacity of the antibody was detected for 0.5 to 2 hours. MDA-MB-231 and PC3 cells were subjected to digestion with 5 mM EDTA, and plated at 4×10^4 cells/well after cell counting. After adding an Fc blocker (Human TruStain FcX™, Biolegend, 422302) and blocking at room temperature for 10 mins, a test antibody (1.5 μg/mL) was added, and the mixture was incubated at 4° C. for 30 mins, centrifuged, and washed twice with PBS+2% FBS, then the cells were divided into four equal portions (labeled as 0 h, 0.5 h, 1 h, 2 h), cells labeled as 0.5 h, 1 h, 2 h time points were added to a cell culture medium at 200 µL/well, and cultured at 37° C. for 0.5 h, 1 h, 2 h, respectively. Cells at 0 h point were centrifuged to remove supernatant, a secondary antibody (PE anti-human IgG Fc Antibody, Biolegend, 410708) was added, and the mixture was incubated at 4° C. for 30 mins, centrifuged, and washed twice with PBS+2% FBS, and detection was performed using a flow cytometer. After incubation of cells labeled as 0.5 h, 1 h, and 2 h points at 37° C. was completed, a secondary antibody was added (in the same steps as those at 0 h point), Geo-MFI of the signal under the same voltage was collected as detection signal at 0 h, and antibody internalization rate was calculated according to the following equation: Internalization (%)=(Geo-MFI (0 h)-Geo-MFI (0.5, 1, 2 h))/Geo-MFI (0 h)×100%.

PC3 cells = experiment: as above; format: cell-based, human; settings: antibody 1.5 μg/mL; for Internalization PC3 (%) 2 h: PC3, 2 h at 37° C.; for Internalization PC3 (%) 0.5 h: PC3, 0.5 h at 37° C.; for Internalization PC3 (%) 1 h: PC3, 1 h at 37° C.
Description: as §1

Row | ka (HuCDCP1-C) [M⁻¹ s⁻¹] | kd (HuCDCP1-C) [s⁻¹] | Molecule | Internalization MDA-MB-231 (%) 2 h (MDA-MB-231 cells) [%] | Internalization PC3 (%) 2 h (PC3 cells) [%] | Internalization MDA-MB-231 (%) 0.5 h (MDA-MB-231 cells) [%] | Internalization MDA-MB-231 (%) 1 h (MDA-MB-231 cells) [%] | Internalization PC3 (%) 0.5 h (PC3 cells) [%] | Internalization PC3 (%) 1 h (PC3 cells) [%]
1 | 128000 | 4.59e-05 | B1 | – | – | – | – | – | –
2 | – | – | B2 | 49.71 | 62.68 | – | – | – | –
3 | – | – | B3 | 42.68 | 28.00 | – | – | – | –
4 | – | – | B4 | 59.61 | 66.74 | – | – | – | –
5 | – | – | B5 | 0.00 | 0.00 | 0.00 | 0.00 | 0.00 | 0.00
6 | – | – | B6 | 88.89 | 87.67 | 75.76 | 86.81 | 60.58 | 77.88
7 | – | – | B7 | 37.57 | 33.83 | – | – | – | –
8 | – | – | B8 | 38.10 | 51.76 | – | – | – | –
9 | – | – | B9 | 83.23 | 82.61 | 55.98 | 70.68 | 46.97 | 67.07
